According to PMC8965725:

Target: NRP-1 expressed on GL261 cells (mouse (endogenous in GL261)) (UniProt P97333)

- cellular FITC fluorescence of GL261 cells incubated with FITC-labeled NPs, flow cytometry, normalized to cells without treatment (cellular internalization): 42%
Substance: RGE fusion protein nanoparticles (RGE peptide-linker-HFn) (designed binder)
